This is an account of results in publication PMC10385607.

pIC50: −log10 of the molar value.

What is called pIC50 is −log10 of the IC50, conventionally taken in molar units. A low value points to a high IC50.

This test addresses Human ALCAM (28–501)-6xhistidine tag (human) (UniProt Q13740). Nature of the test: ELISA; competition with CD6-Fc. In general terms: In an ELISA, binding on a coated surface is turned into a signal by an enzyme label.

Chain of Human ALCAM (28–501)-6xhistidine tag (human) (Q13740 28-501): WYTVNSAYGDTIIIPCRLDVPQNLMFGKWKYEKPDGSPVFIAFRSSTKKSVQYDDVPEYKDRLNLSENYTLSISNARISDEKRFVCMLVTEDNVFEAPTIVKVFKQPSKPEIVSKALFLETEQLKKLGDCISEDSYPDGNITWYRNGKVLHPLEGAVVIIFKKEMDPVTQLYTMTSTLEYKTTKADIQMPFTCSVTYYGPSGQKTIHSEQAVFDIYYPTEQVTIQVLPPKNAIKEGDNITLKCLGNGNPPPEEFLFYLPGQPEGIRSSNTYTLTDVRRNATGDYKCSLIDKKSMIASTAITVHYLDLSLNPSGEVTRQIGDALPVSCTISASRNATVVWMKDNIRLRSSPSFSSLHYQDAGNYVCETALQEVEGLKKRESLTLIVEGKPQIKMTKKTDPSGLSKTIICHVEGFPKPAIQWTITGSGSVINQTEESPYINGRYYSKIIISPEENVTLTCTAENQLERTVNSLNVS

mini-ab V2D7 (from UniProt P03069) had a pIC50 of 8.25.
